Experimental data published in patent WO2015087187A1 (dated 2015).

Columns and labels:
[1] = target: T1, recombinant human SOST (rhSOST) (human, UniProt Q9BQB4 24-213); assay: cell-based or functional assay
T1 sequence: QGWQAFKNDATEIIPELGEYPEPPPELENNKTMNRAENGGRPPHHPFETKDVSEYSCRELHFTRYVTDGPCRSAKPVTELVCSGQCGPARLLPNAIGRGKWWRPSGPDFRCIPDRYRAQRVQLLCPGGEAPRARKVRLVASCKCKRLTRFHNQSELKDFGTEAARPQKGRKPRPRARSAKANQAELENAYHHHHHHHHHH

[2] = target: T1, recombinant human SOST (rhSOST); assay: SPR Biacore T200, IgG captured via anti-human Fc, rhSOST analyte, 37 C

B1: DM4 (antibody, human IgG2, kappa, V domains shown)
VH: EVQLLESGGGLVQPGGSLRLSCAASGHTFSDYWMQWVRQAPGKGLEWVGAIYPGDGDTRYNQKFKDRFTISRDNSKNTLYLQMNSLRAEDTAVYYCARSMDYWGQGTLVTVSS
VL: DIVMTQSPDSLAVSLGERATINCRASKTVDSYGNSFMHWFQQKPGQPPKLLIHHSSNLESGVPDRFSGSGSGTDFTLTISSLQAEDVAVYYCLQTIEFPYTFGQGTKLEIKR
notes: mAb names lost in this copy; also called mH10/mL13
- EC50, neutralization of rhSOST-mediated inhibition of Wnt-10B luciferase reporter activity in U-2OS-TF-Wnt10B cells [1]: 2.07 ug/ml (printed 'Mg/ml')
- Kd [2]: 0.13 nM
- koff [2]: 0.000508 s⁻¹
- kon [2]: 3.91e+06 M⁻¹ s⁻¹
